Results as given in publication PMC4462945 (Molecular Biology of the Cell, 2015).

T1: GST-FliI LRR (mouse)
T1 sequence (Q9JJ28 whole entry, looked up): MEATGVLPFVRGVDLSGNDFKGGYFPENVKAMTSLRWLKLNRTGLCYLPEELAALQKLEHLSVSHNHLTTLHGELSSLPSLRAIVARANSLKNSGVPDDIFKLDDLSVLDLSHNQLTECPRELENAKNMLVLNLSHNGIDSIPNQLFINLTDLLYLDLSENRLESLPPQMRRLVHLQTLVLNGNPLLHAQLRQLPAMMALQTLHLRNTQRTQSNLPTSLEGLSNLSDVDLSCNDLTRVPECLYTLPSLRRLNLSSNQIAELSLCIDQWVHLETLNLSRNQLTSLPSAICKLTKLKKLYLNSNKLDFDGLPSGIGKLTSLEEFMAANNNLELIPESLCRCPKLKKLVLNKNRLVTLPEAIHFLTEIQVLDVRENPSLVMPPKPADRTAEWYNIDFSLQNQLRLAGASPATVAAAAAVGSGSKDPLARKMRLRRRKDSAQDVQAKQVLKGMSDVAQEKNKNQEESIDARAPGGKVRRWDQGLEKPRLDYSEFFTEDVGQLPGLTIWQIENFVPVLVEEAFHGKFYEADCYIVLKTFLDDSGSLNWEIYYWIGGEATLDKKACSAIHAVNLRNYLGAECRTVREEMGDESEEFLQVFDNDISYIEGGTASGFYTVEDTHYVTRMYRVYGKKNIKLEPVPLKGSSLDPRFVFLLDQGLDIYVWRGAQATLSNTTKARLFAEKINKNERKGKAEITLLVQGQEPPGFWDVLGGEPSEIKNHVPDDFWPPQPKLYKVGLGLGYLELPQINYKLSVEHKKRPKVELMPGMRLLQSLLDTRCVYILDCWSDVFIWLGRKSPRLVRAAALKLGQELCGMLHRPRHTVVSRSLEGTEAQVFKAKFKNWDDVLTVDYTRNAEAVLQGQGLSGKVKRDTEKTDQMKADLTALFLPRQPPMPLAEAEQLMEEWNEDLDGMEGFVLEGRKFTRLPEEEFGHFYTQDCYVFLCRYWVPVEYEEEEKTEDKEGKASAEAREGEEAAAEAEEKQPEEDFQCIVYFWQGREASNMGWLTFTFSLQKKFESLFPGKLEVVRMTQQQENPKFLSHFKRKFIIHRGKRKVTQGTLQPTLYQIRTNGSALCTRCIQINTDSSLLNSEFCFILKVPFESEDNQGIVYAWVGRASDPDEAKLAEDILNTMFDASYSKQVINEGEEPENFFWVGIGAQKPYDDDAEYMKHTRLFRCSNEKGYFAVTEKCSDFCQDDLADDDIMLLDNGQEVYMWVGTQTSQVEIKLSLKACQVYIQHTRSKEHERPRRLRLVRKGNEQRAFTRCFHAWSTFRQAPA

T2: GST-FliI GLD 1–6 (mouse, UniProt Q9JJ28 398-1271)
T2 sequence (looked up): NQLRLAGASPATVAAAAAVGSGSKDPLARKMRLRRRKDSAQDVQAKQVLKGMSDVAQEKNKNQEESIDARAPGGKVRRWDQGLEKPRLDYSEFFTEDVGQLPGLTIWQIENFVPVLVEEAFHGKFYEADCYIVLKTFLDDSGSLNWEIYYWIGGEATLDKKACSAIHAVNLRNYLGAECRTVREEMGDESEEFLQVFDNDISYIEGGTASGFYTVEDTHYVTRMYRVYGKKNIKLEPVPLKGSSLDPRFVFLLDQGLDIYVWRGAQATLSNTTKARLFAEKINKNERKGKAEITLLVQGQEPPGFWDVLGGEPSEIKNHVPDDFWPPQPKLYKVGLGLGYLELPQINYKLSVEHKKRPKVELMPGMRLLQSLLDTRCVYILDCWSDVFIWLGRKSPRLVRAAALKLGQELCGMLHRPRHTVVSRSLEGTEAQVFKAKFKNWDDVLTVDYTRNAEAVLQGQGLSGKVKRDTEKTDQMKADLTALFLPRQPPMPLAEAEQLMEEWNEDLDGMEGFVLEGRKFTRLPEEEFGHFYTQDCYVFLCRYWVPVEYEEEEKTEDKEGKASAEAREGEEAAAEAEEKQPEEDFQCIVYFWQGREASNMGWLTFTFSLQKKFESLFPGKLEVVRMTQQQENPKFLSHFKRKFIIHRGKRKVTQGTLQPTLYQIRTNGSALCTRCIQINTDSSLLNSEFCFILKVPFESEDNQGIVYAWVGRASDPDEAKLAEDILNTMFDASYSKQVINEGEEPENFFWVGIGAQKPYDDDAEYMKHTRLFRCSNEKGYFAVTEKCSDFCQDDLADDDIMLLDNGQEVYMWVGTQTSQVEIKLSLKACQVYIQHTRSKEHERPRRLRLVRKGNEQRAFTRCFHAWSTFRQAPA

T3: GST-FliI GLD 2–6 (mouse, UniProt Q9JJ28 619-1271)
T3 sequence (looked up): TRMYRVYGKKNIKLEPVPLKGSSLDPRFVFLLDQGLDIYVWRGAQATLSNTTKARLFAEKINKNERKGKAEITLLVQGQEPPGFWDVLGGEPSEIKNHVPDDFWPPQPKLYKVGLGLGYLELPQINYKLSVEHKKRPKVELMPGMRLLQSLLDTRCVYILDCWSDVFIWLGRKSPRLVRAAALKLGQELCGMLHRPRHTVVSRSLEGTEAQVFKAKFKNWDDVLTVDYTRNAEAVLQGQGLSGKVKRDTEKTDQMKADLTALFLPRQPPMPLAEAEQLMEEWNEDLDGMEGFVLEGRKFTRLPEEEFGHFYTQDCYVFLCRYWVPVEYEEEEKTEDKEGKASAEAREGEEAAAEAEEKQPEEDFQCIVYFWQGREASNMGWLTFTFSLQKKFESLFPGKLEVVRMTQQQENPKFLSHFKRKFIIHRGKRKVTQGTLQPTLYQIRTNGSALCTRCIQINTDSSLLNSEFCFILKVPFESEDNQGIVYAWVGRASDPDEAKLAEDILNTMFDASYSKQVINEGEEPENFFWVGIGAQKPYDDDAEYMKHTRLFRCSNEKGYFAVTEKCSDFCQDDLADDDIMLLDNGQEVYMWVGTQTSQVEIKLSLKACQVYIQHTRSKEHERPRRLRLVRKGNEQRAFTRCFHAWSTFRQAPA


Columns and labels:
Experiment in all cases: pull-down
GST-FliI LRR (mouse) = target: T1, GST-FliI LRR (mouse)
GST-FliI GLD 1–6 = target: T2, GST-FliI GLD 1–6
GST-FliI GLD 2–6 = target: T3, GST-FliI GLD 2–6

Row | Kd (GST-FliI LRR (mouse)) | Kd (GST-FliI GLD 1–6) | Kd (GST-FliI GLD 2–6) | Molecule
1 | 5070 nM | – | – | NMMIIA rods (residues 1338–1960) (from UniProt P35579 1338-1960) (domain or fragment)
2 | – | 146 nM | 858 nM | NMMIIA rods (residues 1338–1960) (domain or fragment, UniProt P35579 1338-1960, looked up) KNSFREQLEEEEEAKHNLEKQIATLHAQVADMKKKMEDSVGCLETAEEVKRKLQKDLEGLSQRHEEKVAAYDKLEKTKTRLQQELDDLLVDLDHQRQSACNLEKKQKKFDQLLAEEKTISAKYAEERDRAEAEAREKETKALSLARALEEAMEQKAELERLNKQFRTEMEDLMSSKDDVGKSVHELEKSKRALEQQVEEMKTQLEELEDELQATEDAKLRLEVNLQAMKAQFERDLQGRDEQSEEKKKQLVRQVREMEAELEDERKQRSMAVAARKKLEMDLKDLEAHIDSANKNRDEAIKQLRKLQAQMKDCMRELDDTRASREEILAQAKENEKKLKSMEAEMIQLQEELAAAERAKRQAQQERDELADEIANSSGKGALALEEKRRLEARIAQLEEELEEEQGNTELINDRLKKANLQIDQINTDLNLERSHAQKNENARQQLERQNKELKVKLQEMEGTVKSKYKASITALEAKIAQLEEQLDNETKERQAACKQVRRTEKKLKDVLLQVDDERRNAEQYKDQADKASTRLKQLKRQLEEAEEEAQRANASRRKLQRELEDATETADAMNREVSSLKNKLRRGDLPFVVPRRMARKGAGDGSDEEVDGKADGAEAKPAE
